Publication PMC9790621

Experiments:
purified protein [1] = substrate: NC(=O)C1=CN([C@@H]2O[C@H](COP(=O)(O)OP(=O)(O)OC[C@H]3O[C@@H](n4cnc5c(N)ncnc54)[C@H](OP(=O)(O)O)[C@@H]3O)[C@@H](O)[C@H]2O)C=CC1; test: purified protein; details: pH 7.8; 25.0 °C
purified protein [2] = substrate: Nc1nc2c(ncn2[C@@H]2O[C@H](COP(=O)(O)O)[C@@H](O)[C@H]2O)c(=O)[nH]1; test: purified protein; details: pH 7.8; 25.0 °C

B1: Mtb GMPR (Mtb GuaB1) (Mycobacterium tuberculosis H37Rv) (protein)
chain: MRFLDGHPPGYDLTYNDVFIVPNRSEVASRFDVDLSTADGSGTTIPVVVANMTAVAGRRMAETVARRGGIVILPQDLPIPAVKQTVAFVKSRDLVLDTPVTLAPDDSVSDAMALIHKRAHGVAVVILEGRPIGLVRESSCLGVDRFTRVRDIAVTDYVTAPAGTEPRKIFDLLEHAPVDVAVLTDADGTLAGVLSRTGAIRAGIYTPATDSAGRLRIGAAVGINGDVGAKARALAEAGVDVLVIDTAHGHQVKTLDAIKAVSALDLGLPLAAGNVVSAEGTRDLLKAGANVVKVGVGPGAMCTTRMMTGVGRPQFSAVLECASAARQLGGHIWADGGIRHPRDVALALAAGASNVMIGSWFAGTYESPGDLMRDRDDQPYKESYGMASKRAVVARTGADNPFDRARKALFEEGISTSRMGLDPDRGGVEDLIDHITSGVRSTCTYVGASNLAELHERAVVGVQSGAGFAEGHPLPAGW
B1 was tested, and the K0.5 (purified protein [1]) was 63 ± 7 µM and the K0.5 (purified protein [2]) was 10.5 ± 1.17 µM.
